The results in this text go back to patent publication US20240279318A1 (NANJING LEGEND BIOTECH, published 2024).

For orientation: Kd means a measure of binding affinity in units of concentration. Read a high Kd as a looser complex. The koff is the rate constant with which the complex falls apart. What is called kon is the second-order rate constant of association. Read a high kon as faster complex formation.

Assay [1] has as its target T1, AFP158/HLA-A*02:01 complex (human).
T1 construct: flowed as analyte in SPR
The assay is described as follows: SPR, crude scFv captured, pMHC analyte.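 Note: Peptide-MHC complex at several concentrations passed over captured scFv, association then buffer-driven dissociation, on- and off-rates fitted from the curves and KD estimated from them.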
Method: (§1) The experiment was carried out as follows. The crude scFv protein were captured onto the sensorchip. Different concentrations (320, 160, 40 nM) of AFP158/HLA-A*02:01 complex flowed over the sensorchip surface, and were allowed to bind the antibody fragment for 100 s followed by injection of the running buffer to allow dissociation of the complex. On-rate (kd) and off-rate (kd) were calculated based on association and dissociation curve, and were used to estimate the equilibrium dissociation constant (KD).

In assay [2] the target is T1, AFP158/HLA-A*02:01 complex. The assay is described as follows: SPR, fold vs AS170036 VL1VH1. In general terms: Surface plasmon resonance follows binding to a sensor surface in real time, without labels.
Method: as §1
Assay [3] addresses T2, AFP158/HLA-A*02:01 complex (human).
T2 construct: flowed over the chip in SPR; also called AFP158 pro
The assay is described as follows: SPR, scFv captured, pMHC in flow.
Method: as §1

For assay [4], the target named is T2, AFP158/HLA-A*02:01 complex. The assay is described as follows: SPR, scFv captured, pMHC in flow.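 Note: complex injected at several concentrations over crude scFv, association then running-buffer dissociation, KD estimated from kinetic on- and off-rate constants.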 This is another data set of the same source.
Method: as §1
The target in assay [5] is T2, AFP158/HLA-A*02:01 complex. The assay is described as follows: SPR, KD ratio to AS170036 VL1VH1.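 Note: crude scFv captured on a sensor chip, peptide–HLA complex passed over at several concentrations, association then buffer dissociation, KD derived from on- and off-rates.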
Method: as §1
The target in assay [6] is T2, AFP158/HLA-A*02:01 complex. The assay is described as follows: SPR, KD ratio to AS170036 VL1VH1.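 Note: crude scFv captured on a sensor chip, peptide–HLA complex passed over at several concentrations, association then buffer dissociation, KD derived from on- and off-rates.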 The source holds these as a separate data set.
Method: as §1

B1: AS170036 VL1VH1-VHG56F (scFv)
scFv: QSALTQPRSVSGSPGQSVTISCAGTSSDVGSENYVSWYQQHPGKAPKLMIYQVNKRASGVPDRFSGSKSGNTASLTISGLQAEDEADYYCASYRSSDHNIVFGGGTKLTVLGGGGSGGGGSGGGGSEVQLVESGGGLVQPGGSLRLSCAASGFTFSSYAMSWVRQAPGKGLEWVSTINSGTFSPYYADSVKGRFTISRDNSKNTLYLQMNSLRAEDTAVYYCAKNFFDGSWFLGPPAMDYWGQGTLVTVSSHHHHHH
In assay [1], B1 came in with a Kd of 98 nM, a koff of 0.022 s⁻¹ and an on-rate constant (kon) of 230000 M⁻¹ s⁻¹. Further, the Affinity increase in assay [2] is 2.3 fold.

B2: LY93Q (scFv)
scFv: QSALTQPRSVSGSPGQSVTISCAGTSSDVGSENYVSWYQQHPGKAPKLMIYQVNKRASGVPDRFSGSKSGNTASLTISGLQAEDEADYYCASQRSSDHNIVFGGGTKLTVLGGGGSGGGGSGGGGSEVQLVESGGGLVQPGGSLRLSCAASGFTFSSYAMSWVRQAPGKGLEWVSTINSGTGSPYYADSVKGRFTISRDNSKNTLYLQMNSLRAEDTAVYYCAKNFFDGSWFLGPPAMDYWGQGTLVTVSSHHHHHH
notes: AS170036 VL1VH1 scFv mutein
In the case of B2, the Kd in assay [3] and in assay [4] was 380 nM throughout. For the same molecule, the Affinity increase in assay [5] and in assay [6] was 0.6 fold each time.

B3: LY93L (scFv)
scFv: QSALTQPRSVSGSPGQSVTISCAGTSSDVGSENYVSWYQQHPGKAPKLMIYQVNKRASGVPDRFSGSKSGNTASLTISGLQAEDEADYYCASLRSSDHNIVFGGGTKLTVLGGGGSGGGGSGGGGSEVQLVESGGGLVQPGGSLRLSCAASGFTFSSYAMSWVRQAPGKGLEWVSTINSGTGSPYYADSVKGRFTISRDNSKNTLYLQMNSLRAEDTAVYYCAKNFFDGSWFLGPPAMDYWGQGTLVTVSSHHHHHH
notes: AS170036 VL1VH1 scFv mutein
As for B3, the Kd in assay [3] and in assay [4] was 180 nM in each case. Also, the Affinity increase in assay [5] and in assay [6] was 1.3 fold each time.

B4: LY93V (scFv)
scFv: QSALTQPRSVSGSPGQSVTISCAGTSSDVGSENYVSWYQQHPGKAPKLMIYQVNKRASGVPDRFSGSKSGNTASLTISGLQAEDEADYYCASVRSSDHNIVFGGGTKLTVLGGGGSGGGGSGGGGSEVQLVESGGGLVQPGGSLRLSCAASGFTFSSYAMSWVRQAPGKGLEWVSTINSGTGSPYYADSVKGRFTISRDNSKNTLYLQMNSLRAEDTAVYYCAKNFFDGSWFLGPPAMDYWGQGTLVTVSSHHHHHH
notes: AS170036 VL1VH1 scFv mutein
For B4, the dissociation constant Kd in assay [3] and in assay [4] was 450 nM throughout. For the same molecule, the Affinity increase in assay [5] and in assay [6] was 0.5 fold throughout.

B5: LY93M (scFv)
scFv: QSALTQPRSVSGSPGQSVTISCAGTSSDVGSENYVSWYQQHPGKAPKLMIYQVNKRASGVPDRFSGSKSGNTASLTISGLQAEDEADYYCASMRSSDHNIVFGGGTKLTVLGGGGSGGGGSGGGGSEVQLVESGGGLVQPGGSLRLSCAASGFTFSSYAMSWVRQAPGKGLEWVSTINSGTGSPYYADSVKGRFTISRDNSKNTLYLQMNSLRAEDTAVYYCAKNFFDGSWFLGPPAMDYWGQGTLVTVSSHHHHHH
notes: AS170036 VL1VH1 scFv mutein
As to B5, the Kd in assay [3] and in assay [4] was 230 nM throughout. Further, the Affinity increase in assay [5] and in assay [6] was 1.1 fold in each case.

B6: AS170036 VL1VH1-VHG108M (scFv)
scFv: QSALTQPRSVSGSPGQSVTISCAGTSSDVGSENYVSWYQQHPGKAPKLMIYQVNKRASGVPDRFSGSKSGNTASLTISGLQAEDEADYYCASYRSSDHNIVFGGGTKLTVLGGGGSGGGGSGGGGSEVQLVESGGGLVQPGGSLRLSCAASGFTFSSYAMSWVRQAPGKGLEWVSTINSGTGSPYYADSVKGRFTISRDNSKNTLYLQMNSLRAEDTAVYYCAKNFFDGSWFLMPPAMDYWGQGTLVTVSSHHHHHH
In assay [1], B6 came in with a Kd of 58 nM, a dissociation rate constant (koff) of 0.013 s⁻¹ and a kon of 220000 M⁻¹ s⁻¹. Besides, in assay [2], the Affinity increase was 4.7 fold.

B7: AS170036 VL1VH1-VHG108A (scFv)
scFv: QSALTQPRSVSGSPGQSVTISCAGTSSDVGSENYVSWYQQHPGKAPKLMIYQVNKRASGVPDRFSGSKSGNTASLTISGLQAEDEADYYCASYRSSDHNIVFGGGTKLTVLGGGGSGGGGSGGGGSEVQLVESGGGLVQPGGSLRLSCAASGFTFSSYAMSWVRQAPGKGLEWVSTINSGTGSPYYADSVKGRFTISRDNSKNTLYLQMNSLRAEDTAVYYCAKNFFDGSWFLAPPAMDYWGQGTLVTVSSHHHHHH
For the molecule B7, in assay [1], the Kd stood at 42 nM, the off-rate (koff) was 0.012 s⁻¹ and the on-rate constant (kon) worked out at 290000 M⁻¹ s⁻¹. This molecule registered an Affinity increase in assay [2] of 5.5 fold.

B8: LY93F (scFv)
scFv: QSALTQPRSVSGSPGQSVTISCAGTSSDVGSENYVSWYQQHPGKAPKLMIYQVNKRASGVPDRFSGSKSGNTASLTISGLQAEDEADYYCASFRSSDHNIVFGGGTKLTVLGGGGSGGGGSGGGGSEVQLVESGGGLVQPGGSLRLSCAASGFTFSSYAMSWVRQAPGKGLEWVSTINSGTGSPYYADSVKGRFTISRDNSKNTLYLQMNSLRAEDTAVYYCAKNFFDGSWFLGPPAMDYWGQGTLVTVSSHHHHHH
notes: AS170036 VL1VH1 scFv mutein
On to B8, for which the Kd in assay [3] and in assay [4] was 140 nM each time. The Affinity increase in assay [5] and in assay [6] was 1.8 fold in each case.

B9: AS170036 VL1VH1-VHG108E (scFv)
scFv: QSALTQPRSVSGSPGQSVTISCAGTSSDVGSENYVSWYQQHPGKAPKLMIYQVNKRASGVPDRFSGSKSGNTASLTISGLQAEDEADYYCASYRSSDHNIVFGGGTKLTVLGGGGSGGGGSGGGGSEVQLVESGGGLVQPGGSLRLSCAASGFTFSSYAMSWVRQAPGKGLEWVSTINSGTGSPYYADSVKGRFTISRDNSKNTLYLQMNSLRAEDTAVYYCAKNFFDGSWFLEPPAMDYWGQGTLVTVSSHHHHHH
For B9, in assay [1], binding was characterised by a dissociation constant (Kd) of 56 nM, the off-rate (koff) was 0.02 s⁻¹ and the kon came to 350000 M⁻¹ s⁻¹. Also, the Affinity increase in assay [2] came out at 4.1 fold.

B10: LY34W (scFv)
scFv: QSALTQPRSVSGSPGQSVTISCAGTSSDVGSENWVSWYQQHPGKAPKLMIYQVNKRASGVPDRFSGSKSGNTASLTISGLQAEDEADYYCASYRSSDHNIVFGGGTKLTVLGGGGSGGGGSGGGGSEVQLVESGGGLVQPGGSLRLSCAASGFTFSSYAMSWVRQAPGKGLEWVSTINSGTGSPYYADSVKGRFTISRDNSKNTLYLQMNSLRAEDTAVYYCAKNFFDGSWFLGPPAMDYWGQGTLVTVSSHHHHHH
notes: AS170036 VL1VH1 scFv mutein
For B10, the Kd in assay [3] and in assay [4] was 410 nM in each case. Also, the Affinity increase in assay [5] and in assay [6] was 0.6 fold throughout.

B11: AS170036 VL1VH1-VHG56Y (scFv)
scFv: QSALTQPRSVSGSPGQSVTISCAGTSSDVGSENYVSWYQQHPGKAPKLMIYQVNKRASGVPDRFSGSKSGNTASLTISGLQAEDEADYYCASYRSSDHNIVFGGGTKLTVLGGGGSGGGGSGGGGSEVQLVESGGGLVQPGGSLRLSCAASGFTFSSYAMSWVRQAPGKGLEWVSTINSGTYSPYYADSVKGRFTISRDNSKNTLYLQMNSLRAEDTAVYYCAKNFFDGSWFLGPPAMDYWGQGTLVTVSSHHHHHH
As for B11, in assay [1], the Kd is 35 nM, the dissociation rate constant (koff) amounted to 0.006 s⁻¹ and the on-rate constant (kon) is 170000 M⁻¹ s⁻¹. Besides, in assay [2], the Affinity increase was 6.6 fold.

B12: AS170036 VL1VH1-VHG108D (scFv)
scFv: QSALTQPRSVSGSPGQSVTISCAGTSSDVGSENYVSWYQQHPGKAPKLMIYQVNKRASGVPDRFSGSKSGNTASLTISGLQAEDEADYYCASYRSSDHNIVFGGGTKLTVLGGGGSGGGGSGGGGSEVQLVESGGGLVQPGGSLRLSCAASGFTFSSYAMSWVRQAPGKGLEWVSTINSGTGSPYYADSVKGRFTISRDNSKNTLYLQMNSLRAEDTAVYYCAKNFFDGSWFLDPPAMDYWGQGTLVTVSSHHHHHH
Consider B12, for which, in assay [1], the Kd came to 42 nM, the koff was 0.015 s⁻¹ and the on-rate (kon) turned out to be 370000 M⁻¹ s⁻¹. Also, the Affinity increase in assay [2] worked out at 5.5 fold.

B13: AS170036 VL1VH1-VHG56N (scFv)
scFv: QSALTQPRSVSGSPGQSVTISCAGTSSDVGSENYVSWYQQHPGKAPKLMIYQVNKRASGVPDRFSGSKSGNTASLTISGLQAEDEADYYCASYRSSDHNIVFGGGTKLTVLGGGGSGGGGSGGGGSEVQLVESGGGLVQPGGSLRLSCAASGFTFSSYAMSWVRQAPGKGLEWVSTINSGTNSPYYADSVKGRFTISRDNSKNTLYLQMNSLRAEDTAVYYCAKNFFDGSWFLGPPAMDYWGQGTLVTVSSHHHHHH
B13: in assay [1], the dissociation constant Kd was found to be 92 nM, the dissociation rate constant (koff) amounted to 0.025 s⁻¹ and the kon amounted to 270000 M⁻¹ s⁻¹. The same molecule showed an Affinity increase in assay [2] of 2.5 fold.

B14: LY93I (scFv)
scFv: QSALTQPRSVSGSPGQSVTISCAGTSSDVGSENYVSWYQQHPGKAPKLMIYQVNKRASGVPDRFSGSKSGNTASLTISGLQAEDEADYYCASIRSSDHNIVFGGGTKLTVLGGGGSGGGGSGGGGSEVQLVESGGGLVQPGGSLRLSCAASGFTFSSYAMSWVRQAPGKGLEWVSTINSGTGSPYYADSVKGRFTISRDNSKNTLYLQMNSLRAEDTAVYYCAKNFFDGSWFLGPPAMDYWGQGTLVTVSSHHHHHH
notes: AS170036 VL1VH1 scFv mutein
On to B14, for which the dissociation constant (Kd) in assay [3] and in assay [4] was 440 nM in each case. In addition, the Affinity increase in assay [5] and in assay [6] was 0.6 fold each time.

B15: LY93W (scFv)
scFv: QSALTQPRSVSGSPGQSVTISCAGTSSDVGSENYVSWYQQHPGKAPKLMIYQVNKRASGVPDRFSGSKSGNTASLTISGLQAEDEADYYCASWRSSDHNIVFGGGTKLTVLGGGGSGGGGSGGGGSEVQLVESGGGLVQPGGSLRLSCAASGFTFSSYAMSWVRQAPGKGLEWVSTINSGTGSPYYADSVKGRFTISRDNSKNTLYLQMNSLRAEDTAVYYCAKNFFDGSWFLGPPAMDYWGQGTLVTVSSHHHHHH
notes: AS170036 VL1VH1 scFv mutein
In the case of B15, the dissociation constant Kd in assay [3] and in assay [4] was 240 nM in each case. The Affinity increase in assay [5] and in assay [6] was 1 fold throughout.
